In the RNAGym collection of RNA variant scans (doi:10.1073/pnas.2313332121):
Fewer inactive variants are shown than the library holds.

B1: TPR 5TU (parent)
chain: GGAUCUUCUCGAUCUAACAAAAAAGACAAAUCUGCCACAAAGCUUGAGAGCAUCUUCGGAUGCAGAGGCGGCAGCCUUCGGUGGCGCGAUAGCGCCAACGUUCUCAACUAUGACACGCAAAACGCGUGCUCCGUUGAAUGGAGUUUAUCAUG

Variants of: B1
Experiment: polymerase ribozyme fitness, log enrichment relative to wild type (log ratio); higher = more active; in vitro selection for triplet polymerase activity
In short: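 In triplicate, a single round of in vitro selection was run on each mutant library, PCR-built and transcribed, covering one subunit of a heterodimeric triplet polymerase ribozyme. Frozen incubation at −7 °C followed annealing with a biotinylated primer, partner subunit and triplets, and extended constructs were then gel-excised, streptavidin-captured and taken through RT-PCR. Fitness is the logarithm of genotype enrichment over wild-type enrichment, from inverse-variance-weighted replicate averages of Illumina-sequenced inputs and outputs. […] only genotypes with ≥10 input reads and ≥1 read per output were kept.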

A39G A47C C123U A150G G152A and A39U G86A are within 0.2 log units of each other in “polymerase ribozyme fitness (log ratio)” value: -3.23 for the first, -3.06 for the second.

A40G A64G G136A and A39G G83A U101A cannot be ordered by “polymerase ribozyme fitness (log ratio)” value: ≤ -4.2 for the first, ≤ -4.2 for the second.

Compared with A39U U45G C85A A91C G92C, A40G C85U C118A is higher in “polymerase ribozyme fitness (log ratio)” value: ≤ -4.2 for the first, -2.77 for the second.

Going from A39U C95U C96A G124A to A39U C43A C75G C87U C118U, the “polymerase ribozyme fitness (log ratio)” value falls from -3.2 to ≤ -4.2.

Compared with A40C A41U C99U C125A, A40C A98U A122U is higher in “polymerase ribozyme fitness (log ratio)” value: -2.04 for the first, 0.766 for the second.

First: A40C G70A
Second: A39C U53C U135C
The “polymerase ribozyme fitness (log ratio)” value of the first is higher: -2.97 for the first, -3.94 for the second.

A39G A137G and A40G C93U A106G C118U are within 0.2 log units of each other in “polymerase ribozyme fitness (log ratio)” value: -3.57 for the first, -3.47 for the second.

Going from A39U U44A C79G C132G U139A to A40C G94U C95G, the “polymerase ribozyme fitness (log ratio)” value rises from ≤ -4.2 to -3.87.

First: A40G A52C G83U A98C
Second: A40G A47C C57U C85A A115U A119C A122G U144A
The “polymerase ribozyme fitness (log ratio)” value of the first is higher: -3.64 for the first, ≤ -4.2 for the second.

Compared with A39G G80U C95U C116G, A39U G117U is higher in “polymerase ribozyme fitness (log ratio)” value: -3.6 for the first, -1.04 for the second.

Compared with A39G G88A A142U, A39G C75U C85U is higher in “polymerase ribozyme fitness (log ratio)” value: ≤ -4.2 for the first, -3.44 for the second.

A39U G42C U77C C85A C95G and A40C G50A C95U U148C cannot be ordered by “polymerase ribozyme fitness (log ratio)” value: ≤ -4.2 for the first, ≤ -4.2 for the second.

First: A40C C75G U82G C93G A138G G140C
Second: A39G U134G
The “polymerase ribozyme fitness (log ratio)” value of the first is lower: ≤ -4.2 for the first, -3.86 for the second.

Compared with A40C G81A, A39G G58U G59C G124C G136A is lower in “polymerase ribozyme fitness (log ratio)” value: 0.951 for the first, ≤ -4.2 for the second.

A39U G50U G83A C96G C103U U135G and A39U U55G G88A U104A U135A U144C C149A cannot be ordered by “polymerase ribozyme fitness (log ratio)” value: ≤ -4.2 for the first, ≤ -4.2 for the second.

A40C C51U C57A G94U C114G A150G and A40C C51A G86C U139C cannot be ordered by “polymerase ribozyme fitness (log ratio)” value: ≤ -4.2 for the first, ≤ -4.2 for the second.

Going from A40C G50A A60U G88U G92C C95G G100U to A40C A60U, the “polymerase ribozyme fitness (log ratio)” value rises from ≤ -4.2 to 0.0412.

Compared with A40G A52C A66U C75G C79G A120C, A40C A89U is higher in “polymerase ribozyme fitness (log ratio)” value: ≤ -4.2 for the first, 0.433 for the second.

A39U A64G G86A A89G U135A and A40C A41C G58C A91U G124A C125A cannot be ordered by “polymerase ribozyme fitness (log ratio)” value: ≤ -4.2 for the first, ≤ -4.2 for the second.

A39U U53A C75G G86U U146G and A39G G50C C51G G58A C93G U139G cannot be ordered by “polymerase ribozyme fitness (log ratio)” value: ≤ -4.2 for the first, ≤ -4.2 for the second.

Compared with A39G A91G A137G, A40C C96U U144G U151G is higher in “polymerase ribozyme fitness (log ratio)” value: ≤ -4.2 for the first, -3.73 for the second.

Compared with A40G C57A C72U C87A, A40C U146G is higher in “polymerase ribozyme fitness (log ratio)” value: ≤ -4.2 for the first, -0.247 for the second.

First: A39G G59A C96G U146C
Second: A40C U82G G94A
The “polymerase ribozyme fitness (log ratio)” value of the first is lower: -3.67 for the first, 0.746 for the second.

Compared with A39G G42A, A40C G84A A97U is higher in “polymerase ribozyme fitness (log ratio)” value: -3.64 for the first, -2.32 for the second.

First: A40C A89G A150G
Second: A40C G86A G141C A147C
The “polymerase ribozyme fitness (log ratio)” value of the first is higher: -3.25 for the first, ≤ -4.2 for the second.

Compared with A39G U53A C87U A115C, A40G C96U is higher in “polymerase ribozyme fitness (log ratio)” value: -3.83 for the first, -1.81 for the second.

A40G C85G U111G U151C and A40C G50A C72U U78C C87U cannot be ordered by “polymerase ribozyme fitness (log ratio)” value: ≤ -4.2 for the first, ≤ -4.2 for the second.

First: A40G A41C A52G G71U A107G U111G U139C U146G C149A U151G
Second: A39U C96G
The “polymerase ribozyme fitness (log ratio)” value of the first is lower: ≤ -4.2 for the first, -2.11 for the second.

Going from A39U C96A to A39U C72A G83A A137U, the “polymerase ribozyme fitness (log ratio)” value falls from -2.81 to ≤ -4.2.

Compared with A39G U77G, A40C U144A is higher in “polymerase ribozyme fitness (log ratio)” value: ≤ -4.2 for the first, -0.312 for the second.

Going from A39U C76G G92U C108U to A40C C85U G133C A142G, the “polymerase ribozyme fitness (log ratio)” value rises from ≤ -4.2 to -3.92.

Going from A39C U53A G86C C105A A119U to A40C U55A A89C, the “polymerase ribozyme fitness (log ratio)” value rises from ≤ -4.2 to 0.0362.

A39U U44C U53A G62U G86A and A40C A49U U56A C57A G88C U135A A137U cannot be ordered by “polymerase ribozyme fitness (log ratio)” value: ≤ -4.2 for the first, ≤ -4.2 for the second.

First: A39G C118U
Second: A40C A49C C54A C96U C114U G126A
The “polymerase ribozyme fitness (log ratio)” value of the first is higher: -1.27 for the first, ≤ -4.2 for the second.

A39U A41U U56A G71A and A40C U44A A60G C69U C72U G83C U104A U127G G152A cannot be ordered by “polymerase ribozyme fitness (log ratio)” value: ≤ -4.2 for the first, ≤ -4.2 for the second.

Compared with A40C G42C C69G C85A U104G G128C G133A, A40C C95U is higher in “polymerase ribozyme fitness (log ratio)” value: ≤ -4.2 for the first, -0.646 for the second.

Going from A40G A60G U61C G84A to A40C U56A C57U G140C, the “polymerase ribozyme fitness (log ratio)” value falls from -3.52 to -3.75.

A39G G62A G94A A120U G143U and A39G U55G G84A U135G cannot be ordered by “polymerase ribozyme fitness (log ratio)” value: ≤ -4.2 for the first, ≤ -4.2 for the second.

A40C G84A U90G G100C and A40C A64G G83U G133C A138C cannot be ordered by “polymerase ribozyme fitness (log ratio)” value: ≤ -4.2 for the first, ≤ -4.2 for the second.

A39U A107G G140C and A40C U45A G50A A73U G92A cannot be ordered by “polymerase ribozyme fitness (log ratio)” value: ≤ -4.2 for the first, ≤ -4.2 for the second.

First: A39U U78A G83A G84C A115U U134C G136U
Second: A39G C57G C105G A147U
The “polymerase ribozyme fitness (log ratio)” value of the first is lower: ≤ -4.2 for the first, -3.4 for the second.

Compared with A40G C87G C103A G117U, A40C G50A is higher in “polymerase ribozyme fitness (log ratio)” value: ≤ -4.2 for the first, -2.43 for the second.
